Measurements taken from patent US20150212086A1.
Where no end group is shown, it is not given here.

Target: full-length MDGI (mammary-derived growth inhibitor) expressed from the pcDNA3-9E10 plasmid as a c-Myc fusion protein (mouse) (UniProt P11404)
Assay: phage binding to U2OS cells transiently transfected with MDGI, 2 h at 4 C, bound phage titrated

## CGLSGLGVA (peptide, not shown: large carriers, also: displayed on T7 phage capsid protein) [CooP displaying phage (phage 36), peptide sequence …]
  fold increase of phage binding compared to the original library: 10 fold
